Laboratory results reported in US12134788B2, “Engineered prephenate dehydrogenases and arogenate dehydrogenases and methods of using the same” (Wisconsin Alumni Research Foundation, priority 2017, dated 2024).
Entries after “also recorded” stand apart in the source; their conditions may differ.

B1: OiTyrA: TyrA from Ochrobactrum intermedium LMG 3301 (α-proteobacteria), E. coli cell lysate (protein)
chain: MRPLRGQSMSRDRNQHTKIGIIGFGAFGQLIARHLNPYFRLYAYDPAADLEQTALMHGVALASVEQVAACDIVILATPVATLESVVDKIAPHLCPGALVLDVGSVKVGPADIMRRGLPAHVDIVATHPLFGPQSARHGIAGLKIAVCPVRGTRFHRVAAFLKKHLSLNVIVTTPEDHDREAAMVQGLTHLIARVLVQMEPLPTRMTTKSFDLLMQAVSMVRHDAPEVFQAIEHANPYAPQVRRHFFALADQINEELARVQPMAAREEAA
modifications: O. intermedium; misc_feature (1)..(269): O. intermedium TyrA OiTyrA
notes: TyrA from Ochrobactrum intermedium LMG 3301 (α-proteobacteria), E. coli cell lysate
B2: SsTyrA: TyrA from Sediminispirochaeta smaragdinae DSM 11293 (spirochaetes), recombinant (protein)
chain: MVEHTVGIYGLGRFGSFWAKSLAASGLKVIGYNRSKRALPEGVVSGSETEVLSCNTLFYCVAISSFEEVLSRTAAKIGKHTLVFDTCSVKVEPVRTMERLLPQGCTFAGSHPMFGPDSASEGMDGLPMVLCPGRDDEGKVDFWRHHFSKMGLRVIEITADRHDKEAAYTQGITHVVGRILGELDLHESEIATSGYKRLLQVREQTCNDPLQLFIDLQRYNPYTHGMRMELTSALEQIMTLFAQADLPPDRP
modifications: S. smaragdinae; misc_feature (1)..(251): S. smaragdinae TyrA SsTyrA
notes: TyrA from Sediminispirochaeta smaragdinae DSM 11293 (spirochaetes), recombinant

Columns and labels:
[1] = PDH assay of microbial TyrA enzymes (Example 2); format: biochemical; settings: 0.8 mM arogenate or prephenate, 0.8 mM cofactor
Procedure: (§1) ADH and PDH assays were performed using purified recombinant enzymes for SsTyrA and MhTyrA Wt and Q227E mutant, while the E. coli cell lysate was used for OiTyrA as expression and purification of this enzyme was unsuccessful. Reactions contained 0.8 mM substrate (arogenate or prephenate) and 0.8 mM cofactor (NADP+ or NAD+) together with reaction buffer (25 mM HEPES pH 7.6, 50 mM KCl, 10% (v/v) ethylene glycol). For OiTyrA assays containing cell lysates, reactions were incubated for 45 minutes and analyzed using HPLC as previously reported (Schenck et al., 2015). For pure enzymes, reactions were monitored every 10-15 seconds for reduced cofactor at A340 nm using a microplate reader (Tecan Genios). Kinetic parameters of purified recombinant enzymes were determined from assays containing varying concentrations of arogenate (39.1 μM-5 mM) or prephenate (39.1 μM-5 mM) substrate and monitored 10-15 seconds for reduced cofactor at A340 nm using a microplate reader (Tecan Genios). Kinetic parameters were determined by fitting initial velocity data to the Michaelis-Menten equation using Origin software (OriginLab) from technical replicate assays (n=3). Arogenate substrate was prepared by enzymatic conversion of prephenate (Sigma-Aldrich). All enzyme assays were conducted at a reaction time and protein concentration that were in the linear range and proportional to reaction velocity.

[2] = ADH assay of microbial TyrA enzymes (Example 2); format: biochemical; settings: ADH activity, NADP+ versus NAD+, 0.8 mM
Procedure: as §1

Molecule | ADH and PDH activity (in words) [1] | cofactor preference (in words) [2]
B1 | had ADH but not PDH activity | strongly preferred NAD+
B2 | showed ADH activity; also recorded: PDH activity was not detectable | slight preference for NAD+
